Reference: paper PMC6943137, “A novel 5′-hydroxyl dinucleotide hydrolase activity for the DXO/Rai1 family of enzymes”

Target: T1, DXO (mouse, UniProt O70348 1-397)
T1 sequence: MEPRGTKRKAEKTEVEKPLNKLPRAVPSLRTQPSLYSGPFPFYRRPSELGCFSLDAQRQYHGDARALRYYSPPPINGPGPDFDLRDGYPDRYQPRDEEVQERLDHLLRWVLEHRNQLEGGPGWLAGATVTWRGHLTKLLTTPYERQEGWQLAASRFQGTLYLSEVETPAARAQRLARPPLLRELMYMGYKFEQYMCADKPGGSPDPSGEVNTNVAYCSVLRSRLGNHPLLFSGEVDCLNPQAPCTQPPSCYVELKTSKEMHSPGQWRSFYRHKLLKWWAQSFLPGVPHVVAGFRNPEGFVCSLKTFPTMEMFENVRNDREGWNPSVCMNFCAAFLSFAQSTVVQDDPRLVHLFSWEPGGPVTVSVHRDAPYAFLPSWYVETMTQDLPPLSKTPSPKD
Experiment: X-ray crystallography, 2.0 A; Ca2+ (one ion); RNA occupancy ~80%, no hydrolysis in crystal; Crystal structure; crystallization buffer not in the material. Nuclease assays (turnover, not listed): 10 mM Tris pH 7.5, 50 mM KOAc, 2 mM Mg(OAc)2, 2 mM MnCl2, 1 mM DTT, 0.1 mM spermine
Conditions: protein: recombinant; tags: His-tag (pET28a); single strand

UUUUUU (XNA, phosphorothioate backbone; 5'-hydroxyl (5'-PO4 removed by CIP)) [5'-OH U(S)6 RNA]: binds.
